Test results taken from patent US11130803B2, “Isoform-selective TGFβ1 inhibitors and use thereof” (Scholar Rock, Inc., priority 2018, dated 2021).
Where two headings read alike, the source gives them in different places.

Experiments:
[1] = molecular target: T1, recombinant human LRRC33-proTGFβ1 complex (Homo sapiens, UniProt P01137); assay: Octet (Biolayer Interferometry) in vitro kinetic binding; conditions: in M
T1 construct: made in house
Outline: (§1)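 Antibody binding kinetics (KD) were determined by biolayer interferometry (Octet QKe) using streptavidin-coated biosensors. Biotinylated human presenting molecule–proTGFβ1 complexes were presented at […].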

[2] = molecular target: T2, recombinant human GARP-proTGFβ1 complex (Homo sapiens, UniProt P01137); assay: as above; conditions: in M
T2 construct: made in house
T2 sequence (P01137 30-390): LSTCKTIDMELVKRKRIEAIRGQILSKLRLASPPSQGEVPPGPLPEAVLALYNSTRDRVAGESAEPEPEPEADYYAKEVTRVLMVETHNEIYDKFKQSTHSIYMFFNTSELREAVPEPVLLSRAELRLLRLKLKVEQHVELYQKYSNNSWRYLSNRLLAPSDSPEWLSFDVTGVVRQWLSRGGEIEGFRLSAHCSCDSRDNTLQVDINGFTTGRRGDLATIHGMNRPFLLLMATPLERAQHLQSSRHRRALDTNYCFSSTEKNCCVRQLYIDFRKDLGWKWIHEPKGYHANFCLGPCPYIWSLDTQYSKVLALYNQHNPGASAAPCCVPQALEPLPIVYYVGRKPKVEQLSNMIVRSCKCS
T2 sequence (Q14392 20-627 partner limits assumed): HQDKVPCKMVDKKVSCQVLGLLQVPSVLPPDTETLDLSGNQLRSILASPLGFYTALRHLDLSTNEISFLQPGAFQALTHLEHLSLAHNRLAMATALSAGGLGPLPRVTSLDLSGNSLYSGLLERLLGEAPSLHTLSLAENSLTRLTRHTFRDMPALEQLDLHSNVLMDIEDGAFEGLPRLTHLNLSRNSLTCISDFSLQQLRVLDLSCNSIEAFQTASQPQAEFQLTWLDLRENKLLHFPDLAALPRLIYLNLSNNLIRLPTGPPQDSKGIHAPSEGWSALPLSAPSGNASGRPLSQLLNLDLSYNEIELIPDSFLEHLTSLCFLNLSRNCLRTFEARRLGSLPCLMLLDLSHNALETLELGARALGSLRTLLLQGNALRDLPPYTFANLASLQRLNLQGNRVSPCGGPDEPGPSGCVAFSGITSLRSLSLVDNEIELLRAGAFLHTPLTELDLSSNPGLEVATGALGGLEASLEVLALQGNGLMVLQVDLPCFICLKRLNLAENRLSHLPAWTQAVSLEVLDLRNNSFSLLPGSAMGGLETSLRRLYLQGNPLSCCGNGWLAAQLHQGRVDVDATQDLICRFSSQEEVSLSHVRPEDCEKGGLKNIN
Outline: as §1

[3] = molecular target: T3, recombinant human LTBP3-proTGFβ1 complex (Homo sapiens, UniProt P01137); assay: as above; conditions: in M
T3 construct: made in house; host or cells: Expi293F cells, transient co-transfection
T3 sequence (P01137 30-390): as the sequence (P01137 30-390) above
T3 sequence (Q9NS15 866-1039 partner limits assumed): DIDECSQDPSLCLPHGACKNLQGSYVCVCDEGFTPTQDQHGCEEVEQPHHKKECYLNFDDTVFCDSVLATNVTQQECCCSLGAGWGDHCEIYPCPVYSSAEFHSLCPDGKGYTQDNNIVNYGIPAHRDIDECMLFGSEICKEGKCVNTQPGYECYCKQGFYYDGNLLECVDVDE
Outline: as §1

[4] = molecular target: T4, recombinant human LTBP1-proTGFβ1 complex (Homo sapiens, UniProt P01137); assay: as above; conditions: in M
T4 construct: made in house; host or cells: Expi293F cells, transient co-transfection
T4 sequence (P01137 30-390): as the sequence (P01137 30-390) above
T4 sequence (Q14766 873-1507 partner): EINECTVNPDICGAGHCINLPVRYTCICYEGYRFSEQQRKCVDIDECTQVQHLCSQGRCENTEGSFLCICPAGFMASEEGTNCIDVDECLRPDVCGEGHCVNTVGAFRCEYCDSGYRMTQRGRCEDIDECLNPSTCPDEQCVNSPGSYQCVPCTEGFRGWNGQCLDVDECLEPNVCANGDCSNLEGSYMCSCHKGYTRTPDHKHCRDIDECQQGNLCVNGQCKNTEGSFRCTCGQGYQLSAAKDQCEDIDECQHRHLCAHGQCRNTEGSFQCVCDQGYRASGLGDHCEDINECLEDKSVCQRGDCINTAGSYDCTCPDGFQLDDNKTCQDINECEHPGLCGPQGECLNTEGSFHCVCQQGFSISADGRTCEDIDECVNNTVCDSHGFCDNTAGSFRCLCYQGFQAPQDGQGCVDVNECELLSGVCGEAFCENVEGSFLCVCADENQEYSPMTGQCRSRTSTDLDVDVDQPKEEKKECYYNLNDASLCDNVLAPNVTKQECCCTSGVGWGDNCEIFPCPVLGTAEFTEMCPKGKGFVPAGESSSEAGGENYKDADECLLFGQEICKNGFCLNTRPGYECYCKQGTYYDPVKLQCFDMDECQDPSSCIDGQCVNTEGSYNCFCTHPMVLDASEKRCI
Outline: as §1

[5] = test system: matrix-associated (LTBP1/LTBP3) and cell-associated (GARP/LRRC33) proTGFβ1 complexes; assay: Octet: average KD and fold bias, matrix- vs cell-associated complexes; assay type: binding, human; conditions: for Kd: average KD of (E) and (F), cell-associated complexes, read-out: (G) Cell AVRG; for (H) G/D (fold bias): ratio of average KD cell-associated / matrix-associated
Outline: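 Monoclonal antibodies were measured for binding affinity, expressed as KD, to cell-surface or cell-associated proTGFβ1 complexes (GARP and LRRC33). The KD values for the two complexes were averaged to give one value for cell-associated affinity. That average was then divided by the matrix-associated average to express fold bias between the complex types.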

[6] = test system: matrix-associated (LTBP1/LTBP3) and cell-associated (GARP/LRRC33) proTGFβ1 complexes; assay: as above; assay type: binding, human; conditions: average KD of (B) and (C), read-out: (D) ECM AVRG
[7] = test system: hLTBP1-/hLTBP3-proTGFβ1 vs hGARP-/hLRRC33-proTGFβ1 complexes; assay: Solution equilibrium titration: relative affinity (bias) LTBP complexes vs cell-associated complexes; assay type: binding, human; conditions: MSD-SET; for (H) G/D (fold bias): ratio of average KD cell-associated / matrix-associated
Source text: Context-biased: As used herein, “context-biased antibodies” refer to a type of conformational antibodies that binds an antigen with differential affinities when the antigen is associated with (i.e., bound to or attached to) an interacting protein or a fragment thereof. Thus, a context-biased antibody that specifically binds an epitope within proTGFβ1 may bind LTBP1-proTGFβ1, LTBP3-proTGFβ1, GARP-proTGFβ1 and LRRC33-proTGFβ1 with different affinities. […] Relative affinities of [matrix-associated complexes]: [cell-associated complexes] may be obtained by taking average KD values of the former, taking average KD values of the latter, and calculating the ratio of the two, as exemplified herein.
In a yet further aspect, the present disclosure provides context-biased TGFβ1 inhibitors. The context-biased antibodies include LTBP-biased antibodies with higher affinities for ECM-associated LLCs than for cell-associated LLCs wherein the affinities are measured at equilibrium.

[8] = average KD of (B) and (C), read-out: (D) ECM AVRG
[9] = average KD of (E) and (F), read-out: (G) Cell AVRG

T1 sequence (P01137 30-390): as the sequence (P01137 30-390) above
T1 sequence (Q86YC3 19-650 partner limits assumed): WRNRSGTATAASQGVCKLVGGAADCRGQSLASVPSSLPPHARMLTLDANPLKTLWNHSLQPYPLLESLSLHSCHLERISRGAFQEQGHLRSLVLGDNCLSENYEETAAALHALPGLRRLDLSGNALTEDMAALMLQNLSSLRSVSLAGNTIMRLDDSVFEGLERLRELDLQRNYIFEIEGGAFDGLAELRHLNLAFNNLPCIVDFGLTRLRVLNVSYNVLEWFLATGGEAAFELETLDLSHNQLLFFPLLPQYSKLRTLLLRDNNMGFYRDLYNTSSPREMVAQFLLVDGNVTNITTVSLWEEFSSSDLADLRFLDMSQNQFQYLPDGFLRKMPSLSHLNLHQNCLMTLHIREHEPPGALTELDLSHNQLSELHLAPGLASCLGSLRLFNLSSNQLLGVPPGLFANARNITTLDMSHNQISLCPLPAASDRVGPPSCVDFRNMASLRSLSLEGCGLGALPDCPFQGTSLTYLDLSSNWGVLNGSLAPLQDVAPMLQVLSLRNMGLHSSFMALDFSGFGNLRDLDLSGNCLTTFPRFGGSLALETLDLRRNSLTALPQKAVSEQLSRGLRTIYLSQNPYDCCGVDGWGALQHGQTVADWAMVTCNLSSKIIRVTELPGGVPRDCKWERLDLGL

Row | Molecule | (F) hLRRC33, Cell-associated proTGFb1 (KD) [1] | (E) hGARP, Cell-associated proTGFb1 (KD) [2] | (C) hLTBP3, Matrix-associated proTGFb1 (KD) [3] | (B) hLTBP1, Matrix-associated proTGFb1 (KD) [4] | Kd [5] | (H) G/D (fold bias) [5] | Kd [6] | Kd [7, 8] | Kd [7, 9] | (H) G/D (fold bias) [7]
1 | Ab19: monoclonal antibody; VH SEQ ID NO: 250, VL SEQ ID NO: 241 (antibody, V domains shown) VH: QVQLVESGGGVVQPGRSLRLSCAASGFTFSSFAMTWVRQAPGKGLEWVSAISGSGAATYFADSVKGRFTISRDNSKNTLYLQMNSLRAEDTAVYYCARVSSGHWDFDEWGQGTLVTVSS VL: DIQLTQSPSSLSASVGDRVTITCRASQSISSYLNWYQQKPGKAPKLLIYAASNLQSGVPSRFSGSGSGTDFTLTISSLQPEDFATYYCQQTYTVPLTFGGGTKVEIK | 6.92E−10 | 1.12E−08 | 1.56E−10 | 1.89E−10 | 5.95 nM | 34.47 fold | 0.172 nM | 2.83 nM | 4.75 nM | 1.68 fold
2 | Ab30: monoclonal antibody; VH SEQ ID NO: 138, VL SEQ ID NO: 15 (antibody, V domains shown) VH: EVQLVESGGGLVQPGGSLRLSCAASGFTFSSFSMDWVRQAPGKGLEWVSYISPDASTIYYADSVKGRFTISRDNAKNSLYLQMNSLRAEDTAVYYCARGTLDYGDMLDPWGQGTLVTVSS VL: DIQMTQSPSSLSASVGDRVTITCQASQDITNYLNWYQQKPGKAPKLLIYDASNLETGVPSRFSGSGSGTDFTFTISSLQPEDIATYYCQQADNHPPWTFGGGTKVEIK | 5.35E−10 | 8.33E−10 | 2.61E−10 | 3.32E−10 | 0.684 nM | 2.307 fold | 0.296 nM | 0.029 nM | 0.081 nM | 2.80 fold
3 | Ab31: monoclonal antibody; VH SEQ ID NO: 139, VL SEQ ID NO: 15 (antibody, V domains shown) VH: EVQLVESGGGLVQPGGSLRLSCAASGFTFSSFSMDWVRQAPGKGLEWVSYISPDASTIYYADSVKGRFTISRDNAKNTLYLQMNSLRAEDTAVYYCARAVLDYGDMLDPWGQGTLVTVSS VL: DIQMTQSPSSLSASVGDRVTITCQASQDITNYLNWYQQKPGKAPKLLIYDASNLETGVPSRFSGSGSGTDFTFTISSLQPEDIATYYCQQADNHPPWTFGGGTKVEIK | 4.10E−10 | 5.81E−10 | 1.81E−10 | 2.36E−10 | 0.495 nM | 2.376 fold | 0.208 nM | 0.017 nM | 0.058 nM | 3.41 fold
4 | Ab33: monoclonal antibody; VH SEQ ID NO: 141, VL SEQ ID NO: 15 (antibody, V domains shown) VH: EVQLVESGGGLVQPGGSLRLSCAASGFTFSSFSMNWVRQAPGKGLEWVSYISPSADTIYYADSVKGRFTISRDNAKNTLYLQMNSLRAEDTAVYYCAHGVLDYGDMLDPWGQGTLVTVSS VL: DIQMTQSPSSLSASVGDRVTITCQASQDITNYLNWYQQKPGKAPKLLIYDASNLETGVPSRFSGSGSGTDFTFTISSLQPEDIATYYCQQADNHPPWTFGGGTKVEIK | 3.39E−10 | 2.65E−10 | 1.11E−10 | 1.79E−10 | 0.302 nM | 2.083 fold | 0.145 nM | 0.009 nM | 0.027 nM | 3.00 fold

Further lines, with some results ahead:

Row | (F) hLRRC33, Cell-associated proTGFb1 (KD) [1] | (E) hGARP, Cell-associated proTGFb1 (KD) [2] | (C) hLTBP3, Matrix-associated proTGFb1 (KD) [3] | (B) hLTBP1, Matrix-associated proTGFb1 (KD) [4] | Molecule | Kd [5] | (H) G/D (fold bias) [5] | Kd [6] | Kd [7, 8] | Kd [7, 9] | (H) G/D (fold bias) [7]
5 | 7.75E−10 | 7.01E−09 | 1.83E−10 | 1.57E−10 | Ab12: monoclonal antibody; VH SEQ ID NO: 237, VL SEQ ID NO: 241 (antibody, V domains shown) VH: QVQLVESGGGVVQPGRSLRLSCAASGFTFSDYAMVWVRQAPGKGLEWVSAISGSGFTTYYADSVKGRFTISRDNSKNTLYLQMNSLRAEDTAVYYCARVSSGHWDFDYWGQGTLVTVSS VL: DIQLTQSPSSLSASVGDRVTITCRASQSISSYLNWYQQKPGKAPKLLIYAASNLQSGVPSRFSGSGSGTDFTLTISSLQPEDFATYYCQQTYTVPLTFGGGTKVEIK | 3.89 nM | 22.897 fold | 0.17 nM | 0.72 nM | 2.45 nM | 3.40 fold
6 | 6.98E−10 | 4.96E−10 | 2.15E−10 | 2.69E−10 | Ab32: monoclonal antibody; VH SEQ ID NO: 140, VL SEQ ID NO: 15 (antibody, V domains shown) VH: EVQLVESGGGLVQPGGSLRLSCAASGFTFSSFSMNWVRQAPGKGLEWVSYISPSADTIYYADSVKGRFTISRDNAKNTLYLQMNSLRAEDTAVYYCARGVWDMGDMLDPWGQGTLVTVSS VL: DIQMTQSPSSLSASVGDRVTITCQASQDITNYLNWYQQKPGKAPKLLIYDASNLETGVPSRFSGSGSGTDFTFTISSLQPEDIATYYCQQADNHPPWTFGGGTKVEIK | 0.597 nM | 2.467 fold | 0.242 nM | 0.032 nM | 0.051 nM | 1.60 fold
